Measured values from patent publication EP2467164A2 (dated 2012).

B1: Ab #6 (antibody, V domains shown)
VH: EVQLLESGGGLVQPGGSLRLSCAASGFTFSHYVMAWVRQAPGKGLEWVSSISSSGGWTLYADSVKGRFTISRDNSKNTLYLQMNSLRAEDTAVYYCTRGLKMATIFDYWGQGTLVTVSS
VL: QSALTQPASVSGSPGQSITISCTGTSSDVGSYNVVSWYQQHPGKAPKLIIYEVSQRPSGVSNRFSGSKSGNTASLTISGLQTEDEADYYCCSYAGSSIFVIFGGGTKVTVL
notes: also called MM-121; anti-ErbB3 antibody Ab #6
B2: betacellulin (ligand, UniProt P35070 32-111, looked up)
chain: DGNSTRSPETNGLLCGDPEENCAATTTQSKRKGHFSRCPKQYKHYCIKGRCRFVVAEQTPSCVCDEGYIGARCERVDLFY
modifications: biotinylated in the FACS assay of Example 7 (site not stated)
notes: also called BTC; biotinylated BTC
B3: Ab #3 (antibody, V domains shown)
VH: EVQLLESGGGLVQPGGSLRLSCAASGFTFSAYNMRWVRQAPGKGLEWVSVIYPSGGATRYADSVKGRFTISRDNSKNTLYLQMNSLRAEDTAVYYCARGYYYYGMDVWGQGTLVTVSS
VL: QSVLTQPPSASGTPGQRVTISCSGSDSNIGRNYIYWYQQFPGTAPKLLIYRNNQRPSGVPDRISGSKSGTSASLAISGLRSEDEAEYHCGTWDDSLSGPVFGGGTKLTVL

What was measured:
ErbB3 = molecular target: T1, ErbB3 (human, UniProt P21860 20-643, limits assumed); test: KinExA
T1 construct: also called ErbB3 domain; HER3

ErbB3 on AdrR cells = ErbB3 on AdrR cells (human, UniProt P21860 20-1342); test: cell-based or functional assay
recombinant ErbB3 = molecular target: T2, recombinant ErbB3 (human, UniProt P21860 20-643); test: surface plasmon resonance, antibody as ligand, recombinant ErbB3 as analyte
T2 construct: also called HER3

[1] = molecular target: T3, ErbB3 expressed on MALME-3M melanoma cells (human, UniProt P21860 20-1342); test: cell binding assay on MALME-3M cells, flow cytometry, one-site model
T3 construct: Endogenous ErbB3 of the MALME-3M cell line; also called ErbB3 on MALME-3M cells

ErbB1 on AdrR cells = molecular target: T4, ErbB1 on AdrR cells (UniProt P00533 25-1210, limits assumed); test: flow cytometry, biotinylated BTC (Figure 15)
T4 construct: whole, on cells; also called EGFR; ErbBl

Binder | Kd (ErbB3) [nM] | koff (ErbB3) [s⁻¹] | kon (ErbB3) [M⁻¹ s⁻¹] | BTC-induced ErbB3 phosphorylation in AdrR cells (IC50) (ErbB3 on AdrR cells) [nM] | HRG-induced ErbB3 phosphorylation in AdrR cells (IC50) (ErbB3 on AdrR cells) [nM] | Kd (recombinant ErbB3) [nM] | Kd [1] [nM] | binding result (ErbB1 on AdrR cells)
B1 | 0.769 | 0.00011 | 143000 | 5.9 | 2.4 | ~4 | ~4 | 
B2 |  |  |  |  |  |  |  | binds
B3 |  |  |  |  |  | ~8 | ~1.3 | 
